Assay [1] addresses full-length human CXCR4 with a C-terminal Flag-tag (human) (UniProt P61073). Kind of assay: cryo-EM structure.
Assay [2] has as its target T1, full-length human CXCR4 with a C-terminal Flag-tag (human), P61073.
T1 chain: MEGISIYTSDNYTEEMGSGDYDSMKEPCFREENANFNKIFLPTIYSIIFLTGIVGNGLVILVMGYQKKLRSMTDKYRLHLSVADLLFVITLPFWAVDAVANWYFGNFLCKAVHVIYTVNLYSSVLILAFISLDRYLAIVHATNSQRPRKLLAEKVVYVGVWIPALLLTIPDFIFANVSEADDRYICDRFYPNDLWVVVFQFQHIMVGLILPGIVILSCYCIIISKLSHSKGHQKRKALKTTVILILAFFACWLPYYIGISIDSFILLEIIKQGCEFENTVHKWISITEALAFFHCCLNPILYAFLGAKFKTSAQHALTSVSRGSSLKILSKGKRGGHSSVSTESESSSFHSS
As to the kind of experiment: cryo-EM structure. Conditions: remark: other sources report otherwise.

Assay [3] concerns the target T1, full-length human CXCR4 with a …. As to the kind of experiment: native gel or EMSA. Conditions: remark: other sources report otherwise.

The molecule “gp120^HIV-2-CD4 complex (from UniProt P01730 26-388)” showed a stoichiometry N (gp120 per CXCR4 tetramer) in assay [1] of 2.

B1: full-length human CXCR4 with a C-terminal Flag-tag, P61073 1-352 (receptor)
chain: MEGISIYTSDNYTEEMGSGDYDSMKEPCFREENANFNKIFLPTIYSIIFLTGIVGNGLVILVMGYQKKLRSMTDKYRLHLSVADLLFVITLPFWAVDAVANWYFGNFLCKAVHVIYTVNLYSSVLILAFISLDRYLAIVHATNSQRPRKLLAEKVVYVGVWIPALLLTIPDFIFANVSEADDRYICDRFYPNDLWVVVFQFQHIMVGLILPGIVILSCYCIIISKLSHSKGHQKRKALKTTVILILAFFACWLPYYIGISIDSFILLEIIKQGCEFENTVHKWISITEALAFFHCCLNPILYAFLGAKFKTSAQHALTSVSRGSSLKILSKGKRGGHSSVSTESESSSFHSS
For the molecule B1, the stoichiometry N (protomers in the oligomer) in assay [2] came out at 4. In addition, in assay [3], the stoichiometry N (protomers in the oligomer (main peak)) worked out at 4.

For the origin of these results see paper PMC12485088.
